# Measurements: patent US20060052296A1 (TEMPLE UNIVERSITY OF THE COMMONWEALTH SYSTEM OF HIGHER …, published 2006)
# B1: YFP-agnoprotein (other)
# chain: MVLRQLSRKASVKVSKTWSGTKKRAQRILIFLLEFLLDFCTGEDSVDGKKRQRHSGLTEQTYSALPEPKAT
# notes: also called GFP-Agnoprotein; fusion agnoprotein
# B2: in vitro synthesized [35S]-labeled agnoprotein (other)
# chain: MVLRQLSRKASVKVSKTWSGTKKRAQRILIFLLEFLLDFCTGEDSVDGKKRQRHSGLTEQTYSALPEPKAT
# notes: also called in vitro translated [35S]-labeled agnoprotein
# What was measured:
# GST alone [1] = molecular target: T1, GST alone (UniProt P08515 1-218 = GST); assay: GST pull-down from NIH 3T3 cell extract, Western blot with anti-agnoprotein antibody
# T1 sequence (P08515 whole entry): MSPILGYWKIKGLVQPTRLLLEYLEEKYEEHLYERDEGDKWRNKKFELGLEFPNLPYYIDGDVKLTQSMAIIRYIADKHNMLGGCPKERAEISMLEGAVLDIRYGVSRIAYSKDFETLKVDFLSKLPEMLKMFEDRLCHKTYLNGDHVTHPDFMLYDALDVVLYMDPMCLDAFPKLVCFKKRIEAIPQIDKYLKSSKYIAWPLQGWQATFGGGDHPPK
# [2] = molecular target: p53 in NIH 3T3 cell protein extract (mouse (endogenous in mouse fibroblast …, UniProt P02340 1-390)); assay: co-immunoprecipitation with anti-p53 antibody pAb 421, Western blot with rabbit anti-Agno
# Sequence of p53 in NIH 3T3 cell protein extract (mouse (P02340 whole entry): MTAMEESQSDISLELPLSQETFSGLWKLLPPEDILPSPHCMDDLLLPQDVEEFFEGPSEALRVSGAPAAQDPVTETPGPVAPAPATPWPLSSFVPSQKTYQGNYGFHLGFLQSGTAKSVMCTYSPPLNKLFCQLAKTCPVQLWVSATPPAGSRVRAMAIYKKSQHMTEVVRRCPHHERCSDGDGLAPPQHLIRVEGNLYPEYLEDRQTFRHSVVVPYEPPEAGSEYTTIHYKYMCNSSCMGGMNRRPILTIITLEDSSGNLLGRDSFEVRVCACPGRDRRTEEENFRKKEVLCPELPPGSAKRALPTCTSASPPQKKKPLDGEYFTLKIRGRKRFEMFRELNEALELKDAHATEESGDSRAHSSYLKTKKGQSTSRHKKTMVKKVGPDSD
# GST alone [3] = molecular target: T1, GST alone; assay: GST pull-down, autoradiography
Binder,binding result (GST alone [1]),binding result [2],binding result (GST alone [3])
B1,no binding,binds,–
B2,–,–,no binding
